Data: patent US7247703

B1: p 48-56 HER-2/neu peptide … (peptide)
peptide: HLYQGCQVV
B2: p 789-797 HER-2/neu peptide … (peptide)
peptide: CLTSTVQLV
B3: p 1172-1180 HER-2/neu peptide … (peptide)
peptide: TLSPGKNGV

The binders below were run against HLA-A2.1 class I MHC molecule on T2 cells (human) (assay: T2 class I MHC stabilization assay, anti-HLA-A2 immunofluorescent staining, peptide vs medium alone). Details: remark: other sources report otherwise.

| % Increase of class I stabilization on T2 | Binder |
| --- | --- |
| 20% | B1 |
| 20% | B2 |
| 10% | B3 |
